Literature values in publication PMC7514057.
pKd: −log10 of the molar value.

Biological target: ArkA peptide (Ark1p) Lys(3) to Lys(-8) (Saccharomyces cerevisiae) (UniProt P53974)

Substance: Abp1p SH3 (from UniProt P15891)
- pKd: 5.77
